Experimental data as given in patent publication US20230242675A1 (SHANGHAI EPIMAB BIOTHERAPEUTICS, published 2023).
Values belong to the binder of their own block, whether it stands above or below them.

Legend:
[1] = molecular target: T1, human PD-L1/His fusion protein (human, UniProt Q9NZQ7 19-239); experiment: BLI Octet RED96, antibody on AHC sensor, single conc. PD-L1/His; test group 3
Experimental: (§1) All 15 antibodies in Table 13 were assayed for and ranked by dissociation rate constant (koff). […] Briefly, antibodies were characterized for affinities and binding kinetics by Octet®RED96 biolayer interferometry (Pall ForteBio LLC). Antibodies were captured by Anti-hIgG Fc Capture (AHC) Biosensors (Pall) at a concentration of 100 nM for 30 seconds. Sensors were then dipped into running buffer (1×pH 7.2 PBS, 0.05% Tween 20, 0.1% BSA) for 60 seconds to check the baseline. Binding was measured by dipping sensors into a single concentration of recombinant human PD-L1/His fusion protein (Novoprotein). Dissociation was followed by dipping sensors into running buffer for 1200 seconds. The association and dissociation curves were fitted to a 1:1 Langmuir binding model using ForteBio Data Analysis software (Pall). […] The off-rate ratio serves as a data normalization. Accordingly, in each test group, the off-rate ratios of the humanized antibodies can be compared with that of the chimeric antibody, and the off-rate ratios of each of the humanized antibodies can be compared to one another within all test groups.

[2] = molecular target: T1, human PD-L1/His fusion protein; experiment: BLI off-rate; test group 3
Experimental: as §1

[3] = molecular target: T1, human PD-L1/His fusion protein; experiment: BLI Octet RED96, antibody on AHC sensor, single conc. PD-L1/His; test group 1
Experimental: as §1

[4] = molecular target: T1, human PD-L1/His fusion protein; experiment: BLI off-rate; test group 1
Experimental: as §1

[5] = molecular target: T1, human PD-L1/His fusion protein; experiment: BLI off-rate; test group 2
Experimental: as §1

[6] = molecular target: T1, human PD-L1/His fusion protein; experiment: BLI Octet RED96, antibody on AHC sensor, single conc. PD-L1/His; test group 2
Experimental: as §1

human TGFβ1 = molecular target: T2, human TGFβ1 (human, UniProt P01137 279-390); experiment: ELISA: human TGFβ1 coated (1 µg/ml), binding protein titrated 0.0006-10 nM, anti-human IgG Fc-HRP, OD450
T2 construct: also called TGFβ isoform 1; TGFβ1 (Cat. No. CA59, Novoprotein)
Experimental: (§2) Accordingly, each of the wells of the ELISA microplates provided a reaction mixture to test the ability of a particular binding protein at a particular concentration to bind to a particular TGFβ isoform. […] Plates were washed three times in washing buffer (PBS containing 0.05% Tween 20) and blocked for 1 hour at 37° C. with 200 μl per well of blocking buffer (1% BSA in PBS containing 0.05% Tween 20). […] The wells containing the various binding mixtures were incubated at 37° C. for 1 hour to permit binding to TGFβ protein on the surface of the wells. Thereafter, the wells were washed four times with washing buffer, and anti-human IgG Fc HRP (Sigma, Catalog No. A0170) was diluted 1:10000 and added to the wells at 100 μl per well to detect binding protein that was bound to TGFβ protein present on the surface of a well. The plates were incubated for 1 hour at 37° C. and washed four times with washing buffer. 100 μl of tetramethylbenzidine (TMB) chromogenic solution were added per well. Following color development, the reaction was stopped with 1 N HCl, and absorbance at 450 nm (OD450) was measured on a VARIOSKAN™ LUX microplate reader (Thermo Scientific™).

human TGFβ2 = molecular target: T3, human TGFβ2 (human, UniProt P61812 303-414); experiment: ELISA: human TGFβ2 coated (1 µg/ml), binding protein titrated 0.0006-10 nM, anti-human IgG Fc-HRP, OD450
T3 construct: also called TGFβ isoform 2; TGFβ2 (Cat. No. CJ79, Novoprotein)
T3 sequence (looked up): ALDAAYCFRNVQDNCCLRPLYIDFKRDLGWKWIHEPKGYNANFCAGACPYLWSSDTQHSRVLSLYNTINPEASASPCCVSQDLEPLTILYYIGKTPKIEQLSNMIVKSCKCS
Experimental: as §2

T1 sequence (Q9NZQ7 19-239 limits assumed): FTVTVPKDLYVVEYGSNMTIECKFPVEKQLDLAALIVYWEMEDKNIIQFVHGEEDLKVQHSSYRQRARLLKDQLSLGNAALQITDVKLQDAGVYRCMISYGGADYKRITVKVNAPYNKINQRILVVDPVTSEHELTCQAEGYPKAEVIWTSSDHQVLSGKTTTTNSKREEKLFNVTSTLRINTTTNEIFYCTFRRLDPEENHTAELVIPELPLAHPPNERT
T2 sequence (P01137 279-390 limits assumed): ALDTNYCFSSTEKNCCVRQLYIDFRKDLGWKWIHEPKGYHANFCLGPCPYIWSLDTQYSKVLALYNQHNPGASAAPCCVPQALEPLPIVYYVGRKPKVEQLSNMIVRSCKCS

B2: HuEM0005-86-4 (antibody, human IgG1, V domains shown)
VH: EVQLVQSGAEVKKPGASVKVSCKASGYTFTTYGINWVRQAPGQGLEWIGYIYIGNGYTEYNEKFKGRVTLTSDTSTSTAYMELSSLRSDDTAVYYCARDLMVIAPKTMDYWGQGTTVTVSS
VL: DIQMTQSPSSVSASVGDRVTITCKASQDVGTAVAWYQQKPGKAPKLLIYWASTRHTGVPDRFTGSGSGTDFTLTISSLQPEDFATYYCQQYSSYPYTFGGGTKVEIK
- koff [3]: 0.000957 s⁻¹
- Off-Rate Ratio to that of EM0005-86c [4]: 78%

B3: HuEM0005-86-3 (antibody, human IgG1, V domains shown)
VH: EVQLVQSGAEVKKPGASVKVSCKASGYTFTTYGINWVRQAPGQGLEWMGYIYIGNGYTEYNEKFKGRVTLTSDTSTSTAYMELSSLRSDDTAVYYCARDLMVIAPKTMDYWGQGTTVTVSS
VL: DIQMTQSPSSVSASVGDRVTITCKASQDVGTAVAWYQQKPGKAPKLLIYWASTRHTGVPDRFTGSGSGTDFTLTISSLQPEDFATYYCQQYSSYPYTFGGGTKVEIK
- koff [3]: 0.00142 s⁻¹
- Off-Rate Ratio to that of EM0005-86c [4]: 115%

B4: HuEM0005-86-1 (antibody, human IgG1, V domains shown)
VH: EVQLVQSGAEVKKPGASVKVSCKASGYTFTTYGINWVRQAPGQGLEWMGYIYIGNGYTEYNEKFKGRVTMTTDTSTSTAYMELSSLRSDDTAVYYCARDLMVIAPKTMDYWGQGTTVTVSS
VL: DIQMTQSPSSVSASVGDRVTITCKASQDVGTAVAWYQQKPGKAPKLLIYWASTRHTGVPDRFTGSGSGTDFTLTISSLQPEDFATYYCQQYSSYPYTFGGGTKVEIK
- koff [3]: 0.00147 s⁻¹
- Off-Rate Ratio to that of EM0005-86c [4]: 120%

B5: HuEM0005-86-11 (antibody, human IgG1, V domains shown)
VH: EVQLVQSGAEVKKPGASVKVSCKASGYTFTTYGINWVRQAPGQGLEWIGYIYIGNGYTEYNEKFKGRVTLTSDTSTSTAYMELSSLRSDDTAVYYCARDLMVIAPKTMDYWGQGTTVTVSS
VL: DIQMTQSPSSVSASVGDRVTITCKASQDVGTAVAWYQQKPGKSPKLLIYWASTRHTGVPDRFTGSGSGTDFTLTISSLQPEDFATYFCQQYSSYPYTFGGGTKVEIK
- Off-Rate Ratio to that of EM0005-86c [5]: 73%
- koff [6]: 0.00131 s⁻¹

B10: HuEM0005-86-12 (antibody, human IgG1, V domains shown)
VH: EVQLVQSGAEVKKPGASVKVSCKASGYTFTTYGINWVRQAPGQGLEWIGYIYIGNGYTEYNEKFKGKATLTSDTSTSTAYMELSSLRSDDTAVYYCARDLMVIAPKTMDYWGQGTTVTVSS
VL: DIQMTQSPSSVSASVGDRVTITCKASQDVGTAVAWYQQKPGKSPKLLIYWASTRHTGVPDRFTGSGSGTDFTLTISSLQPEDFATYFCQQYSSYPYTFGGGTKVEIK
- Off-Rate Ratio to that of EM0005-86c [5]: 84%
- koff [6]: 0.0015 s⁻¹

B11: HuEM0005-86-9 (antibody, human IgG1, V domains shown)
VH: EVQLVQSGAEVKKPGASVKVSCKASGYTFTTYGINWVRQAPGQGLEWMGYIYIGNGYTEYNEKFKGRVTMTSDTSTSTAYMELSSLRSDDTAVYYCARDLMVIAPKTMDYWGQGTTVTVSS
VL: DIQMTQSPSSVSASVGDRVTITCKASQDVGTAVAWYQQKPGKSPKLLIYWASTRHTGVPDRFTGSGSGTDFTLTISSLQPEDFATYFCQQYSSYPYTFGGGTKVEIK
- Off-Rate Ratio to that of EM0005-86c [5]: 89%
- koff [6]: 0.0016 s⁻¹

B12: HuEM0005-86-2 (antibody, human IgG1, V domains shown)
VH: EVQLVQSGAEVKKPGASVKVSCKASGYTFTTYGINWVRQAPGQGLEWMGYIYIGNGYTEYNEKFKGRVTMTSDTSTSTAYMELSSLRSDDTAVYYCARDLMVIAPKTMDYWGQGTTVTVSS
VL: DIQMTQSPSSVSASVGDRVTITCKASQDVGTAVAWYQQKPGKAPKLLIYWASTRHTGVPDRFTGSGSGTDFTLTISSLQPEDFATYYCQQYSSYPYTFGGGTKVEIK
- koff [3]: 0.000887 s⁻¹
- Off-Rate Ratio to that of EM0005-86c [4]: 72%

B13: HuEM0005-86-6 (antibody, human IgG1, V domains shown)
VH: EVQLVQSGAEVKKPGASVKVSCKTSGYTFTTYGINWVRQAPGQGLEWIGYIYIGNGYTEYNEKFKGKATLTSDPSTRTAYMELSSLRSDDTAVYYCARDLMVIAPKTMDYWGQGTTVTVSS
VL: DIQMTQSPSSVSASVGDRVTITCKASQDVGTAVAWYQQKPGKAPKLLIYWASTRHTGVPDRFTGSGSGTDFTLTISSLQPEDFATYYCQQYSSYPYTFGGGTKVEIK
notes: measured without the G55A change
- koff [3]: 0.00122 s⁻¹
- Off-Rate Ratio to that of EM0005-86c [4]: 99%

B14: bintrafusp alfa (bispecific antibody, human IgG1, lambda)
heavy: not shown
light: QSALTQPASVSGSPGQSITISCTGTSSDVGGYNYVSWYQQHPGKAPKLMIYDVSNRPSGVSNRFSGSKSGNTASLTISGLQAEDEADYYCSSYTSSSTRVFGTGTKVTVLGQPKANPTVTLFPPSSEELQANKATLVCLISDFYPGAVTVAWKADGSPVKAGVETTKPSKQSNNKYAASSYLSLTPEQWKSHRSYSCQVTHEGSTVEKTVAPTECS
notes: also called M7824; Bintrafusp alfa protein
- EC50 (human TGFβ1): 0.696 nM
- EC50 (human TGFβ2): 3.6 nM

Now from value to binder:

- koff [1]: 0.00111 s⁻¹
- Off-Rate Ratio to that of EM0005-86c [2]: 108%
B1: EM0005-86c-G55A (antibody, human IgG1, V domains shown)
VH: QVQLQQSGAELVRPGSSVKMSCKTSGYTFTTYGINWVKQRPGQGLEWIGYIYIGNAYTEYNEKFKGKATLTSDPSSRTAYMQLSSLTSEDSAIYFCARDLMVIAPKTMDYWGQGTSVTVSS
VL: DIQMNQSHKFMSTSVGDRVSITCKASQDVGTAVAWYQQKPGQSPKLLIYWASTRHTGVPDRFTGGGSGTDFTLTISNVQSEDLADYFCQQYSSYPYTFGGGTKLEMK
notes: Chimeric antibody with G55A (Kabat) in CDR-H2; also called HuEM0005-86-G55A

- koff [1]: 0.000838 s⁻¹
- Off-Rate Ratio to that of EM0005-86c [2]: 81%
B6: HuEM0005-86-14 (antibody, human IgG1, V domains shown)
VH: EVQLVQSGAEVKKPGASVKVSCKASGYTFTTYGINWVRQAPGQGLEWIGYIYIGNGYTEYNEKFKGRVTLTSDPSTRTAYMELSSLRSDDTAVYYCARDLMVIAPKTMDYWGQGTTVTVSS
VL: DIQMTQSPSSVSASVGDRVTITCKASQDVGTAVAWYQQKPGKSPKLLIYWASTRHTGVPDRFTGSGSGTDFTLTISSLQPEDFATYFCQQYSSYPYTFGGGTKVEIK

- koff [1]: 0.00124 s⁻¹
- Off-Rate Ratio to that of EM0005-86c [2]: 120%
B7: HuEM0005-86-5 (antibody, human IgG1, V domains shown)
VH: EVQLVQSGAEVKKPGASVKVSCKASGYTFTTYGINWVRQAPGQGLEWIGYIYIGNGYTEYNEKFKGKATLTSDTSTSTAYMELSSLRSDDTAVYYCARDLMVIAPKTMDYWGQGTTVTVSS
VL: DIQMTQSPSSVSASVGDRVTITCKASQDVGTAVAWYQQKPGKAPKLLIYWASTRHTGVPDRFTGSGSGTDFTLTISSLQPEDFATYYCQQYSSYPYTFGGGTKVEIK

- koff [1]: 0.00119 s⁻¹
- Off-Rate Ratio to that of EM0005-86c [2]: 116%
B8: HuEM0005-86-13 (antibody, human IgG1, V domains shown)
VH: EVQLVQSGAEVKKPGASVKVSCKTSGYTFTTYGINWVRQAPGQGLEWIGYIYIGNGYTEYNEKFKGKATLTSDPSTRTAYMELSSLRSDDTAVYYCARDLMVIAPKTMDYWGQGTTVTVSS
VL: DIQMTQSPSSVSASVGDRVTITCKASQDVGTAVAWYQQKPGKSPKLLIYWASTRHTGVPDRFTGSGSGTDFTLTISSLQPEDFATYFCQQYSSYPYTFGGGTKVEIK

- Off-Rate Ratio to that of EM0005-86c [5]: 88%
- koff [6]: 0.00157 s⁻¹
B9: HuEM0005-86-10 (antibody, human IgG1, V domains shown)
VH: EVQLVQSGAEVKKPGASVKVSCKASGYTFTTYGINWVRQAPGQGLEWMGYIYIGNGYTEYNEKFKGRVTLTSDTSTSTAYMELSSLRSDDTAVYYCARDLMVIAPKTMDYWGQGTTVTVSS
VL: DIQMTQSPSSVSASVGDRVTITCKASQDVGTAVAWYQQKPGKSPKLLIYWASTRHTGVPDRFTGSGSGTDFTLTISSLQPEDFATYFCQQYSSYPYTFGGGTKVEIK
